Biological target: phycobilisome core (CK) of allophycocyanin cylinders from a Synechocystis PCC 6803 mutant lacking the rods (Synechocystis sp. PCC 6803 (endogenous in the rod-less mutant)) (UniProt Q01951)

B1: N-terminal domain (NTD) of the orange carotenoid protein (OCP) binding canthaxanthin (holo-NTD) (domain or fragment)
chain: VPATIARFSQLNAEDQLALIWFAYLEMGKTLTIAAPGAASMQLAENALKEIQAMGPLQQTQAMCDLANRADTPLCRTYASWSPNIKLGFWYRLGELMEQGFVAPIPAGYQLSANANAVLATIQGLESGQQITVLRNAVVDMGFTA
Work on B1 yielded a fraction of the decay of excited CK bilins that is quenched (112 ps component) in CK-NTD, transient absorption with excitation at 694 nm of 76%.
